Source: patent publication US11466066B2, “Variants of human BMP7 protein” (ELI LILLY AND COMPANY, priority 2017, dated 2022)
Where a chain is given by its changes, count along the chain named. In names and notes the source's numbering stands.

B1: Y65G/I86L/N110G/Y128W: human mature BMP7 protein variant, SEQ ID NO: 7 (protein)
chain: STGSKQRSQNRSKTPKNQEALRMANVAENSSSDQRQACKKHELYVSFRDLGWQDWIIAPEGYAAGYCEGECAFPLNSYMNATNHALVQTLVHFINPETVPKPCCAPTQLGAISVLYFDDSSNVILKKWRNMVVRACGCH
B2: Y65G/I86L/T89A/N110G: human mature BMP7 protein variant, SEQ ID NO: 5 (protein)
chain: B1 chain with T89A, W128Y
B3: Y65G/I86L/N110G/Y128F: human mature BMP7 protein variant, SEQ ID NO: 6 (protein)
chain: B1 chain with W128F
B4: Y65G/T89A/N110G/Y128F: human mature BMP7 protein variant, SEQ ID NO: 9 (protein)
chain: B1 chain with L86I, T89A, W128F
B5: Y65G/I86L/N110G: human mature BMP7 protein variant, SEQ ID NO: 10 (protein)
chain: B1 chain with W128Y
B6: Y65G/V114M: human mature BMP7 protein variant, SEQ ID NO: 11 (protein)
chain: B1 chain with L86I, G110N, V114M, W128Y
B7: F93V/N110G: human mature BMP7 protein variant F93V/N110G, SEQ ID NO: 4 (protein)
chain: B1 chain with G65Y, L86I, F93V, W128Y
B8: I86L: SEQ ID NO: 2 having the single amino acid mutation I86L (protein, listed as Homo sapiens)
chain: B1 chain with G65Y, G110N, W128Y
B9: I86V: SEQ ID NO: 2 having the single amino acid mutation I86V (protein, listed as Homo sapiens)
chain: B1 chain with G65Y, L86V, G110N, W128Y
B10: T89A: SEQ ID NO: 2 having the single amino acid mutation T89A (protein, listed as Homo sapiens)
chain: B1 chain with G65Y, L86I, T89A, G110N, W128Y
B11: V91M: SEQ ID NO: 2 having the single amino acid mutation V91M (protein, listed as Homo sapiens)
chain: B1 chain with G65Y, L86I, V91M, G110N, W128Y
B12: F93V: SEQ ID NO: 2 having the single amino acid mutation F93V (protein, listed as Homo sapiens)
chain: B1 chain with G65Y, L86I, F93V, G110N, W128Y
B13: I94F: SEQ ID NO: 2 having the single amino acid mutation I94F (protein, listed as Homo sapiens)
chain: B1 chain with G65Y, L86I, I94F, G110N, W128Y
B14: N110G: SEQ ID NO: 2 having the single amino acid mutation N110G (protein, listed as Homo sapiens)
chain: B1 chain with G65Y, L86I, W128Y
B15: V114M: SEQ ID NO: 2 having the single amino acid mutation V114M (protein, listed as Homo sapiens)
chain: B1 chain with G65Y, L86I, G110N, V114M, W128Y
B16: D33M: SEQ ID NO: 2 having the single amino acid mutation D33M (protein, listed as Homo sapiens)
chain: B1 chain with D33M, G65Y, L86I, G110N, W128Y
B17: A37P: SEQ ID NO: 2 having the single amino acid mutation A37P (protein, listed as Homo sapiens)
chain: B1 chain with A37P, G65Y, L86I, G110N, W128Y
B18: E60Q: SEQ ID NO: 2 having the single amino acid mutation E60Q (protein, listed as Homo sapiens)
chain: B1 chain with E60Q, G65Y, L86I, G110N, W128Y
B19: Y65G: SEQ ID NO: 2 having the single amino acid mutation Y65G (protein, listed as Homo sapiens)
chain: B1 chain with L86I, G110N, W128Y
B20: human BMP7 protein: wild type human BMP7 protein of Example 2; pro or mature form not stated (protein, UniProt P18075 293-431, looked up)
Bone morphogenetic protein 7: B1 chain with G65Y, L86I, G110N, W128Y

Test system: female CB17SC-M SCID mice
Assay: Ectopic bone formation model
Type: in vivo
Details: 3 μg/100 μl subcutaneous; CT scan on Day 13
Protocol: Ectopic bone formation (EBF) may be measured in female CB17SC-M SCID mice upon subcutaneous administration of certain human BMP7 protein variants of the present invention compared to wild type human mature BMP7.
Briefly described, the mice may be anesthetized with 3% isoflurane and are injected with 3 μg/100 μl of the human BMP7 protein variant, wild type human mature BMP7 protein or a vehicle control on the back left flank. The back right flank of each mouse may serve as a control (no injection). Vehicle (pH 4.5): 0.5% Sucrose, 2.5% Glycine, 5 mM L-Glutamic Acid, 5 mM NaCl, 0.01% polysorbate 80, and, 0.1% BSA.
EBF may be measured by a CT scan on Day 13 after injection of the human BMP7 protein variant or wild type human mature BMP7 protein.
In the case of B1, the “Ectopic Bone Formation Volume” value is reported as 11 mm^3.

Test system: MFc7 mouse renal myofibroblasts
Assay: MFc7 bioassay
Type: cell-based
Details: EC50 of wild type BMP7 protein/EC50 of the variant; multiple amino acid changes (Table 3)
Protocol: MFc7 mouse renal myofibroblasts (mouse kidney fibroblast cell line) may be maintained under routine cell culture conditions in OPTI-MEM/10% FBS medium. The cells may be plated in 10 cm tissue culture plates at a seeding density of 500,000 cells/plate. After approximately 48 hours, the cells may be washed with phosphate buffered saline (PBS) prior to the addition of OPTI-MEM/2% dialyzed fetal bovine serum (FBS) medium containing 1 μg/ml BMP7 protein or 1 μg/ml of a BMP7 protein variant and incubated for 48 hours. After treatment the cells may be rinsed with PBS and stored at −80° C. for 20 minutes. After thawing the cells at 37° C. for 30 minutes 100 μl of para-nitrophenyl phosphate (PNPP) may be added. The plate may be incubated at 37° C. for 1 hour. The absorbance at 405 nm may be read utilizing a plate reader. The average relative potency (EC50 of wild type BMP7 protein/EC50 of the BMP7 protein variant) of certain human BMP7 protein variants of the present invention may be calculated based on such readings.
For B2, the “Average Relative Potency” value was 10. In the case of B3, the “Average Relative Potency” value is reported as 7. For B1, the “Average Relative Potency” value was 16. With B4 the “Average Relative Potency” value was 6.2. In the case of B5, the “Average Relative Potency” value is reported as 8.7. With B6 the “Average Relative Potency” value was 5.0. With B7 the “Average Relative Potency” value was 9.

Same assay, conditions: EC50 of wild type BMP7 protein/EC50 of the variant; single amino acid change (Table 4)
For B8, the “Average Relative Potency” value was 5.9. With B9 the “Average Relative Potency” value was 17.4. In the case of B10, the “Average Relative Potency” value is reported as 3. With B11 the “Average Relative Potency” value was 3.3. For B12, the “Average Relative Potency” value was 16. With B13 the “Average Relative Potency” value was 7.5. For B14, the “Average Relative Potency” value was 1.7. In the case of B15, the “Average Relative Potency” value is reported as 9.4. For B16, the “Average Relative Potency” value was 3.3. In the case of B17, the “Average Relative Potency” value is reported as 7.5. With B18 the “Average Relative Potency” value was 5.5. For B19, the “Average Relative Potency” value was 1.3.

Test system: not listed separately
Assay: Thermal unfolding assay (circular dichroism)
Type: physicochemical
Details: CD at 208 nm; 10 mM citrate, 300 mM NaCl, pH 7.4
Protocol: The effect of temperature on the conformational stability of human BMP7 protein variants may be followed by circular dichroism (CD) on a Jasco J-810 instrument equipped with a thermoelectric sample compartment. Briefly stated, 0.2-1.0 mg/mL pro-BMP7 may be formulated in storage buffer (10 mM citrate, 300 mM NaCl, pH 7.4) and loaded into a 0.02 cm path-length CD cuvette. The sample may be heated from 20 to 80° C. at a linear rate of 1° C./minute and the resulting CD signal at 208 nm may be recorded every 0.2° C. using a 1 second signal response time. A non-linear fit to equation 1 may be performed by the program JMP (SAS Institute Inc, Cary, N.C.) to obtain the thermal unfolding mid-point (Tm).
[formula] where, Yu and Yf are fit and represent the Y-intercept of the pre- and post-transition baselines, respectively. Mu and Mf are fit and represent the slope of the pre- and post-transition baselines, respectively. Hm and S are fit and represent enthalpy and entropy, respectively. T is the measured temperature in Kelvin units.
For “human pro-BMP7 protein variant V114M: human pro-BMP7 protein variant with V114M in the mature domain”, the “thermal unfolding mid-point (Tm)” value was 64.5 °C.

Test system: RAR alpha
Assay: RAR alpha protein expression, Western Blot
Type: cell-based, mouse
Details: MFc7 and 3T3-L1 cell lines; 1 μg/mL, 48 hours; Western Blot intensity
Protocol: (§1) 3T3-L1 fibroblasts and MFc7 mouse renal myofibroblasts may be maintained under routine cell culture conditions in DMEM/10% calf serum medium or OPTI-MEM/10% FBS medium, respectively. The cells may be plated in 10 cm tissue culture plates at a seeding density of 500,000 cells/plate. After 48 hours, the cells may be washed with PBS prior to the addition of either DMEM/2% dialyzed FBS or OPTI-MEM/2% dialyzed FBS medium containing 1 μg/mL human BMP7 protein or 1 μg/mL of a human BMP7 protein variant. The cells may be incubated for 48 hours and then rinsed with ice-cold PBS, and then lysed with Protein Extraction Reagent. Then lysates may be centrifuged at 14,000×g for 15 minutes. A Bradford protein assay may be performed to determine the protein concentration of each lysate. Equivalent amounts of protein (for example, 25 μg) may be resolved by SDS-PAGE and then transferred to nitrocellulose membranes for Western Blot analysis. The membranes may be probed with an anti-RAR alpha antibody and/or an anti-RAR gamma antibody.
With B20 the “RAR alpha protein expression” value was “stimulated”.

Test system: RAR gamma
Assay: RAR gamma protein expression, Western Blot
Type: cell-based, mouse
Details: MFc7 and 3T3-L1 cell lines; 1 μg/mL, 48 hours; Western Blot intensity
Protocol: as §1
With B20 the “RAR gamma protein expression” value was “stimulated”.
